Measurements: PMC11840735

Target: USP14 (UniProt P54578)
Test: co-IP, immunoblot
Details: reference: ALKBH5 wild type; sites S64,S69

binding against the reference: weaker
Substance: ALKBH5 (from UniProt Q6P6C2) ALKBH5 S64A/S69A
